Broadly, the Kd is the concentration at which binding is half-saturated.

This assay deals with human recombinant SNAP25 (Synaptosomal Associated Protein 25) (human) (UniProt P60880). Description: SPR. For orientation: SPR reads the build-up and loss of mass on a sensor chip optically.
Chain of human recombinant SNAP25 (Synaptosomal Associated Protein 25) (human) (P60880 whole entry): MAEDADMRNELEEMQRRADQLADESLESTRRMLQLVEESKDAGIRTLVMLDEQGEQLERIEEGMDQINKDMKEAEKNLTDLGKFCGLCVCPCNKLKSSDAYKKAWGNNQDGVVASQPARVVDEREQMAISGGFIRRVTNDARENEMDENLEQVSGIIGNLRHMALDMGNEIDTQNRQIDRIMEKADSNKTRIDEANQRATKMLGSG

“Human type V Collagen (from UniProt P20908 38-1605; P05997 27-1229) (complex)”: the Kd came to 7.2 µM.

Values taken from PMC11429891.
